Key:
[1] = target: T1, human PD-L1 expressed on cell surface (human, UniProt Q9NZQ7 19-290); assay: cell-based or functional assay
[2] = target: T2, rhesus PD-L1 expressed on HEK293F cells (rhesus, UniProt F6VEW6 19-290); assay: flow cytometry, HEK293F cells transiently expressing the target, 100 nM antibody, PE anti-human Fc; Mean (PE-A against FITC-A, GFP surrogate)
T2 construct: whole, on cells
Procedure: (§1) The selectivity of antibodies for PD-L1 was evaluated using flow cytometry. Briefly, human, rhesus and mouse PD-L1, as well as human PD1, CTLA4, LAG3, TIM3 and B7-H3 were transiently expressed on the membrane of HEK293F cells individually. Transfected cells were washed in pre-chilled staining buffer (PBS supplemented with 2% FBS), then incubated with 100 nM test antibodies for 1 hr on ice. Cells were washed twice with staining buffer, and Phycoerythrin (PE)-conjugated mouse anti-human Fc antibodies were added and incubated for 30 min on ice. Samples were washed once with staining buffer prior to analysis by flow cytometry.

[3] = target: T1, human PD-L1 expressed on cell surface; assay: as above
Procedure: as §1

[4] = target: T3, human PD1 expressed on HEK293F cells (human, UniProt Q15116 25-288); assay: as above
T3 construct: whole, on cells
T3 sequence (Q15116 25-288): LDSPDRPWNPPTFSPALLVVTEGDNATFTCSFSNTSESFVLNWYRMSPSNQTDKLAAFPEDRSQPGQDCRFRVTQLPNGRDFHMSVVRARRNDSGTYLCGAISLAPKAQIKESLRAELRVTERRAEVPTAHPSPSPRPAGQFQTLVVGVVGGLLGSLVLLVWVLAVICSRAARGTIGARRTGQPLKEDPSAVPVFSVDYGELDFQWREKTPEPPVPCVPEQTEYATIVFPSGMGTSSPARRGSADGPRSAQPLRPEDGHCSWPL
Procedure: as §1

[5] = target: T4, human CTLA4 expressed on HEK293F cells (human, UniProt P16410 36-223); assay: as above
T4 construct: whole, on cells
T4 sequence (P16410 36-223): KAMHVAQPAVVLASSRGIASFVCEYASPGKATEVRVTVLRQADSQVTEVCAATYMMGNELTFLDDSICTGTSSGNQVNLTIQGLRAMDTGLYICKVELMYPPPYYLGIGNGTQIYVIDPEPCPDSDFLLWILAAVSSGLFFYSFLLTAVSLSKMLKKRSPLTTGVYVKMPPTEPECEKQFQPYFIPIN
Procedure: as §1

[6] = target: T5, human TIM3 expressed on HEK293F cells (human, UniProt Q8TDQ0 22-301); assay: as above
T5 construct: whole, on cells
Procedure: as §1

[7] = target: T6, human LAG3 expressed on HEK293F cells (human, UniProt P18627 23-525); assay: as above
T6 construct: whole, on cells
T6 sequence (looked up): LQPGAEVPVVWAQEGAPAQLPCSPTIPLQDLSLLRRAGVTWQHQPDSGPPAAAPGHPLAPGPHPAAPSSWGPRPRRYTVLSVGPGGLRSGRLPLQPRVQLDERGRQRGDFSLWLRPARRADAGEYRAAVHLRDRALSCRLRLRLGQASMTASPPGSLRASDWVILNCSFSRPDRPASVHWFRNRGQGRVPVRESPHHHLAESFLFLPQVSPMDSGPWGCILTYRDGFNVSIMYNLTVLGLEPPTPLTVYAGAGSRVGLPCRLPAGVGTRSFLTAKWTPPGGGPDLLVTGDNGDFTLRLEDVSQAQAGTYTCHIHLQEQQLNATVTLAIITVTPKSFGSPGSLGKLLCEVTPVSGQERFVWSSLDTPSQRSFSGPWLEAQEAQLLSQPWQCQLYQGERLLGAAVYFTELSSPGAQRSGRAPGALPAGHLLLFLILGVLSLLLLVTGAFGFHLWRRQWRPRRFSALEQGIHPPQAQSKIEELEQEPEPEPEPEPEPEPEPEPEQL
Procedure: as §1

T1 sequence (Q9NZQ7 19-290): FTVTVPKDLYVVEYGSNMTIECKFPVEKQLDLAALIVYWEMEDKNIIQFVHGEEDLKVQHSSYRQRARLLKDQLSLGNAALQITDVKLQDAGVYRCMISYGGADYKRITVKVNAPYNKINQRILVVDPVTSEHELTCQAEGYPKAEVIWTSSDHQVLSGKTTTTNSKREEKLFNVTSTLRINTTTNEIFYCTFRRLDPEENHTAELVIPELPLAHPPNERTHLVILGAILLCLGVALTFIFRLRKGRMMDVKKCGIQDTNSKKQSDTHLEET

Relative luminescence units (RLU), Promega PD1/PD-L1 reporter gene assay; EC50 [1]: 0.39 nM
Mean [2]: 184000
Mean [3]: 170000
Mean [4]: 6980
Mean [5]: 4900
Mean [6]: 8100
Mean [7]: 5850
B1: TY21421 (antibody, V domains shown)
VH: EVQLVESGGGLVQPGGSLRLSCAASGYSISSGYYWGWIRQAPGKGLEWIGIIYPSGGGTNYAQKFQGRVTISRDNSKNTLYLQLNSLRAEDTAVYYCARGGGLGFDYWGQGTLVTVSS
VL: DIQLTQSPSSLSASVGDRVTITCRASQSIPSFLNWYQQKPGKAPKLLIYAASSLQSGVPSRFSGSGSGTDFTLTISSLQPEDFATYYCQHYISWPRQFTFGQGTKVEIKR
notes: IgG1 (wild type) made from Fab B15041, from HEK293F cells

From patent publication US20210122824A1 (ADAGENE, published 2021)
